# Where “and” joins values, the source holds several entries; their conditions need not be identical. Equal entries are not always repeated.
# Assays:
# P04080 [1] = assay: SEC; Y31 variant and its mutants; conditions not told for this experiment
# [2] = biological target: stefin B-Y31 P79S mutant (human) (UniProt P04080); assay: as above
# P04080 [3] = assay: SEC; Superdex 75 FPLC column, 0.5 mL/min, typically 100 uL of 50 uM protein, 10 mM potassium phosphate pH 7.0, 0.15 M NaCl; samples frozen and unfrozen once; percentages estimated from the surface area of the peaks
# [4] = biological target: the molecule itself; assay: as above
# [5] = biological target: the molecule itself; assay: SEC; Y31 variant and its mutants; conditions not told for this experiment
# P04080 [6] = assay: as above; remark: listed apart in the source
# Chain of stefin B-Y31 P79S mutant (P04080 other isoform, or with tags, fused parts or gaps, stated change not applied): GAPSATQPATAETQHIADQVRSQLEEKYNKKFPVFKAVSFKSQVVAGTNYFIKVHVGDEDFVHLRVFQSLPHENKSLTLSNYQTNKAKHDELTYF
molecule,measurement,setting,value
stefin B-Y31 P79S mutant,percent dimers (SEC),P04080 [1],100% were dimeric
stefin B-Y31 P79S mutant (from UniProt P04080 4-98) (natural protein),stoichiometry N,[2],2
"stefin B P79S mutant (of the wt C3S E31-stefin B) (natural protein, human, UniProt P04080 1-98, looked up, human stefin B (cystatin B), 98 amino acids, E31 variant, C3S, with P79S) MMSGAPSATQPATAETQHIADQVRSQLEEKENKKFPVFKAVSFKSQVVAGTNYFIKVHVGDEDFVHLRVFQSLPHENKSLTLSNYQTNKAKHDELTYF",percent dimers (SEC peak area),P04080 [3],55% dimers
same,percent higher molecular weight species (SEC peak area),P04080 [3],15% of higher molecular weight species
same,percent tetramers (SEC peak area),P04080 [3],around 30% tetramers
same,stoichiometry N,[4],4 and 2
"wild-type like C3S E31-stefin B (human) (natural protein, UniProt P04080 1-98, looked up, human stefin B (cystatin B), 98 amino acids, E31 variant, Cys 3 changed to Ser; also called wt stefin B; wt) MMSGAPSATQPATAETQHIADQVRSQLEEKENKKFPVFKAVSFKSQVVAGTNYFIKVHVGDEDFVHLRVFQSLPHENKPLTLSNYQTNKAKHDELTYF",percent dimers (SEC peak area),P04080 [3],65% dimers
same,percent higher oligomers (SEC peak area),P04080 [3],10% of higher oligomers
same,percent monomers (SEC peak area),P04080 [3],5% monomers
same,percent tetramers (SEC peak area),P04080 [3],20% tetramers
same,stoichiometry N,[4],2 and 4
"stefin B-Y31 variant (with Y at site 31) (natural protein, human, UniProt P04080 1-98, looked up, human stefin B (cystatin B), 98 amino acids, variant with Y at site 31; Cys 3 changed to Ser 'for all in vitro studies') MMSGAPSATQPATAETQHIADQVRSQLEEKYNKKFPVFKAVSFKSQVVAGTNYFIKVHVGDEDFVHLRVFQSLPHENKPLTLSNYQTNKAKHDELTYF",stoichiometry N,[5],2
same,percent monomers (SEC),P04080 [6],"70% and 75% of molecules were monomers, respectively and the rest were dimers"
"stefin B P11S mutant (of the wt C3S E31-stefin B) (natural protein, human, UniProt P04080 1-98, looked up, human stefin B (cystatin B), 98 amino acids, E31 variant, C3S, with P11S) MMSGAPSATQSATAETQHIADQVRSQLEEKENKKFPVFKAVSFKSQVVAGTNYFIKVHVGDEDFVHLRVFQSLPHENKPLTLSNYQTNKAKHDELTYF",binding result,[4],binds
"stefin B-Y31 P36G mutant (natural protein, human, UniProt P04080 1-98, looked up, human stefin B (cystatin B), 98 amino acids, variant with Y at site 31, with P36G; Cys 3 changed to Ser 'for all in vitro studies') MMSGAPSATQPATAETQHIADQVRSQLEEKYNKKFGVFKAVSFKSQVVAGTNYFIKVHVGDEDFVHLRVFQSLPHENKPLTLSNYQTNKAKHDELTYF",stoichiometry N,[5],2
same,percent monomers (SEC),P04080 [6],"70% and 75% of molecules were monomers, respectively and the rest were dimers"
"stefin B P36D mutant (of the wt C3S E31-stefin B) (natural protein, human, UniProt P04080 1-98, looked up, human stefin B (cystatin B), 98 amino acids, E31 variant, C3S, with P36D) MMSGAPSATQPATAETQHIADQVRSQLEEKENKKFDVFKAVSFKSQVVAGTNYFIKVHVGDEDFVHLRVFQSLPHENKPLTLSNYQTNKAKHDELTYF",stoichiometry N,[4],2 and 4
"stefin B P6L mutant (of the wt C3S E31-stefin B) (natural protein, human, UniProt P04080 1-98, looked up, human stefin B (cystatin B), 98 amino acids, E31 variant, C3S, with P6L) MMSGALSATQPATAETQHIADQVRSQLEEKENKKFPVFKAVSFKSQVVAGTNYFIKVHVGDEDFVHLRVFQSLPHENKPLTLSNYQTNKAKHDELTYF",binding result,[4],binds
stefin B P74S mutant (of the wt C3S E31-stefin B) (protein) MMSGAPSATQPATAETQHIADQVRSQLEEKENKKFPVFKAVSFKSQVVAGTNYFIKVHVGDEDFVHLRVFQSLSHENKPLTLSNYQTNKAKHDELTYF,percent oligomers (SEC),P04080 [3],The tendency to form oligomers is high for the P74S mutant of the wt (>50%)
